Assay results published in PMC5957452, “Structural basis for overhang excision and terminal unwinding of DNA duplexes by TREX1” (PLoS Biology, 2018).

Target: the molecule itself
Test: crystal structure; TREX1 (15-25 mg/mL) in 300 mM NaCl, 50 mM Tris-HCl pH 7.0 mixed with DNA substrates at molar ratio 1:1.5; four TREX1-DNA complex crystals, TREX1 dimer in the asymmetric unit

B1: Three prime repair exonuclease 1 (TREX1), mouse, residues 1-242 (C-terminal transmembrane domain truncated) (enzyme, Mus musculus, UniProt Q91XB0 1-242, looked up)
chain: MGSQTLPHGHMQTLIFLDLEATGLPSSRPEVTELCLLAVHRRALENTSISQGHPPPVPRPPRVVDKLSLCIAPGKACSPGASEITGLSKAELEVQGRQRFDDNLAILLRAFLQRQPQPCCLVAHNGDRYDFPLLQTELARLSTPSPLDGTFCVDSIAALKALEQASSPSGNGSRKSYSLGSIYTRLYWQAPTDSHTAEGDVLTLLSICQWKPQALLQWVDEHARPFSTVKPMYGTPATTGTT
notes: TREX1, Mus musculus, residues 1-242, subcloned into the BamHI/XhoI site of pET28a; C-terminal transmembrane domain truncated; His-tagged or non-His-tagged (thrombin-treated) TREX1 was used for crystallization; Crystals also hold DNA substrates and Mg2+; also called mTREX1; wild-type TREX1; source: E. coli BL21-CodonPlus(DE3)-RIPL or Rosetta2(DE3)pLysS, purified (Ni-NTA, HiTrap Heparin, Superdex …)
B1: binds.
